The results in this text go back to publication PMC10687032, “Phosphorylation of USP27X by GSK3β maintains the stability and oncogenic functions of CBX2” (Cell Death & Disease, 2023).

The target of one assay is CBX2 (UniProt Q14781). The assay is described as follows: co-IP with anti-Myc, anti-HA immunoblot. As to conditions: reference: HA-USP27X wild type; sites S135. For orientation: Immunoblotting shows a protein as a band on a membrane.
Another assay deals with T1, His-Myc-CBX2 (human, UniProt Q14781 1-532).
T1 construct: Chromobox protein homolog 2 (CBX2), human; the His-Myc construct is named only in the pull-down methods; the cloning of a His-Myc construct is not described; also called Purified Myc-CBX2
T1 sequence (looked up): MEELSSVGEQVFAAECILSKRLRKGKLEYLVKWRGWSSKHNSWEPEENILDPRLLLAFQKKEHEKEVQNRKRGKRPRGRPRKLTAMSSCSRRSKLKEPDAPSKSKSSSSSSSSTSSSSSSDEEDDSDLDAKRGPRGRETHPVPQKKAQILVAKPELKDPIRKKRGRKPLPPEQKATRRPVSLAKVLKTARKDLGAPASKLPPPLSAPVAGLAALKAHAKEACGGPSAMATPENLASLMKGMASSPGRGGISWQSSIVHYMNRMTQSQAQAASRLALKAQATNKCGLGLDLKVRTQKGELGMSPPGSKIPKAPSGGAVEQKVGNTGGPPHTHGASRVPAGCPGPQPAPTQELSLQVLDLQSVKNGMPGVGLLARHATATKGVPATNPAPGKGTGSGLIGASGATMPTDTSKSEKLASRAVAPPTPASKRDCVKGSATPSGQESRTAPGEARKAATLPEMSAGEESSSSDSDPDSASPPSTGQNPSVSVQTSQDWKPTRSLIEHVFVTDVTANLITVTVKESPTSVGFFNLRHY
The assay is described as follows: pull-down; GST-USP27X bound to glutathione-Sepharose 4B beads incubated with His-Myc-CBX2 for 2 h at 4 °C; retained proteins immunoblotted. As to conditions: both partners purified.

For the molecule “USP27X (from UniProt A6NNY8) HA-USP27X S135A”, the “binding against the reference” value with CBX2 is “weaker”.

B1: GST-USP27X (enzyme, human, UniProt A6NNY8 1-438, looked up)
chain: MCKDYVYDKDIEQIAKEEQGEALKLQASTSTEVSHQQCSVPGLGEKFPTWETTKPELELLGHNPRRRRITSSFTIGLRGLINLGNTCFMNCIVQALTHTPILRDFFLSDRHRCEMPSPELCLVCEMSSLFRELYSGNPSPHVPYKLLHLVWIHARHLAGYRQQDAHEFLIAALDVLHRHCKGDDVGKAANNPNHCNCIIDQIFTGGLQSDVTCQACHGVSTTIDPCWDISLDLPGSCTSFWPMSPGRESSVNGESHIPGITTLTDCLRRFTRPEHLGSSAKIKCGSCQSYQESTKQLTMNKLPVVACFHFKRFEHSAKQRRKITTYISFPLELDMTPFMASSKESRMNGQLQLPTNSGNNENKYSLFAVVNHQGTLESGHYTSFIRHHKDQWFKCDDAVITKASIKDVLDSEGYLLFYHKQVLEHESEKVKEMNTQAY
notes: ubiquitin-specific peptidase 27X (USP27X), human cDNA cloned into pGEX-1λT (plasmids section) or pGEX-4T-1 (pull-down section); also called GST-USP27X-WT; Recombinant GST-USP27X; source: E. coli BL21, purified (GST beads)
With B1, the binding result with His-Myc-CBX2 is recorded as “binds”.
